Reference: article PMC6827562 (Structure (London, England : 1993), 2019)
Each block holds one molecule with its values, some of them ahead of it.

How the values were obtained:
[1] = target: PP-1c (Homo sapiens) (UniProt P62136); conditions: cited from earlier work
[2] = target: T1, Protein phosphatase-1cα (PP-1cα) (human, UniProt P62136 1-330); test: SEC-MALS
[3] = target: p53 DBD (human, UniProt P04637 94-292); test: EMSA
[4] = target: T1, Protein phosphatase-1cα (PP-1cα); test: crystal structure

T1 sequence (P62136 whole entry): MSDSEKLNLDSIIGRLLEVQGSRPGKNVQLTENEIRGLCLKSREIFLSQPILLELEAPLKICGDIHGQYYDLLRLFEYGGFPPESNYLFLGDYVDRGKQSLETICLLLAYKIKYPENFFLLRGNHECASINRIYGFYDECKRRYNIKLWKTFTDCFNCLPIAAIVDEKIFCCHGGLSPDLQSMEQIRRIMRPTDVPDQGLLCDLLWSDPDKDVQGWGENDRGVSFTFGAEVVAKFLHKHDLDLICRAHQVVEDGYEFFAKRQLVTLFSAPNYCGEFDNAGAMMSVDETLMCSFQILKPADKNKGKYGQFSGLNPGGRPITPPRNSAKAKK
Sequence of p53 DBD (P04637 94-292): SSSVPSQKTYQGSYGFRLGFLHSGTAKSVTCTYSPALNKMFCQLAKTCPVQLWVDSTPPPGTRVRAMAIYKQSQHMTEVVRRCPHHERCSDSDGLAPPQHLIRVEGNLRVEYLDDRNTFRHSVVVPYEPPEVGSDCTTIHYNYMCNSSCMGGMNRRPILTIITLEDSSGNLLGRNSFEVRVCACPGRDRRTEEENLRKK
Sequence of PP-1c (Homo sapiens) (P62136 2-330): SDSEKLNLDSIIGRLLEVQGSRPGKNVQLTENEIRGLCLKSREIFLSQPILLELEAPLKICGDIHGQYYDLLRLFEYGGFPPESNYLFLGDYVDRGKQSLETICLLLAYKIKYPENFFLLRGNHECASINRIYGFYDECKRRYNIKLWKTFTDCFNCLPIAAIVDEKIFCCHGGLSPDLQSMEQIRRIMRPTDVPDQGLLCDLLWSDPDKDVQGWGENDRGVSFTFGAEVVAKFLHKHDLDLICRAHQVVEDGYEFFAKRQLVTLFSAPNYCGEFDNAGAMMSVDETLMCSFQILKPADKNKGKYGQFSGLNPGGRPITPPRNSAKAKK

Molecule: iASPP (from UniProt Q8WUF5)
Kd [1]: 26 nM

binding result [2]: binds
B1: ASPP2_(905–1128) (domain or fragment, human, UniProt Q13625 905-1128, looked up)
chain: RTNLRKTGSERIAHGMRVKFNPLALLLDSSLEGEFDLVQRIIYEVDDPSLPNDEGITALHNAVCAGHTEIVKFLVQFGVNVNAADSDGWTPLHCAASCNNVQVCKFLVESGAAVFAMTYSDMQTAADKCEEMEEGYTQCSQFLYGVQEKMGIMNKGVIYALWDYEPQNDDELPMKEGDCMTIIHREDEDEIEWWWARLNDKEGYVPRNLLGLYPRIKPRQRSLA

B2: PUMA p53 site (dsDNA)
DNA 1: CGCGCCTGCAAGTCCTGACTTGTCCGCGGC
DNA 2: GCCGCGGACAAGTCAGGACTTGCAGGCGCG
binding result [3]: binds

binding result [2]: binds
B3: iASPP(621–828) (domain or fragment, human, UniProt Q8WUF5 621-828, looked up)
chain: RRARLNPLVLLLDAALTGELEVVQQAVKEMNDPSQPNEEGITALHNAICGANYSIVDFLITAGANVNSPDSHGWTPLHCAASCNDTVICMALVQHGAAIFATTLSDGATAFEKCDPYREGYADCATYLADVEQSMGLMNSGAVYALWDYSAEFGDELSFREGESVTVLRRDGPEETDWWWAALHGQEGYVPRNYFGLFPRVKPQRSKV

binding result [4]: binds
B4: iASPP_(608–828) (domain or fragment, human, UniProt Q8WUF5 608-828, looked up)
chain: RSVLRKAGSPRKARRARLNPLVLLLDAALTGELEVVQQAVKEMNDPSQPNEEGITALHNAICGANYSIVDFLITAGANVNSPDSHGWTPLHCAASCNDTVICMALVQHGAAIFATTLSDGATAFEKCDPYREGYADCATYLADVEQSMGLMNSGAVYALWDYSAEFGDELSFREGESVTVLRRDGPEETDWWWAALHGQEGYVPRNYFGLFPRVKPQRSKV
